Assay results taken from the supplement of paper PMC9170038.

Tested on: MS2 coat protein
Test: apparent KD of MS2 coat protein; designed switch direction (-1 OFF switch, 1 ON switch): -1; higher = weaker reporter binding
In short: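 For each design, the apparent KD is the median over clusters of curves fitted to normalised cluster fluorescence. Clusters held RNA switches with common flanks, transcribed on Illumina chips by stalled E. coli RNA polymerase. These were titrated with SNAP-549-labelled MS2 coat protein, doubling from 0.7 or 1.5 nM to 3 µM, without input, with 200 uM small-molecule ligand, or with an oligonucleotide input.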

[1] = input ligand: microRNA oligo, concentration not stated
[2] = Eterna round: R95, input ligand: FMN 200 uM
[3] = Eterna round: R95, input ligand: microRNA oligo, concentration not stated
[4] = Eterna round: R95, input ligand: none

| Sequence | apparent KD of MS2 coat protein (input ligand: FMN 200 uM) [nM] | apparent KD of MS2 coat protein (input ligand: none) [nM] | apparent KD of MS2 coat protein [3] [nM] | also measured |
| --- | --- | --- | --- | --- |
| UUCACAUGGACAUAAGAUCACAUGAGGAUCACCCAUGUGAAUAACAAGCUUUUUGUUCGUCUUAUGUCCAAUAAUAG [Stov1/14-B2] (Eterna round: R97, puzzle: Sensor, turn-off variant 1) | 13.7 | 13.5 | – | – |
| UAGUUAAUCACAGGAUAUCGCCUCUUAUUACAUGAGGAUCACCCAUGUUUAGUUAGUUACAUGUUCGAGAAGGGUGUUGUAGUU [JR_ExcNG2_Sub042] (Eterna round: R96, puzzle: Exclusion NG 2) | 714 | 579 | – | apparent KD of MS2 coat protein [1]: 408 nM |
| AAUACACAUGAGGAUCACCCAUGUUAGGAUAUGAGCAGACAGACAGACAGACAGACGAUCAGAAGGAAUAGGAA [Excls1-V] (puzzle: Exclusion 1) | – | – | 25.4 | apparent KD of MS2 coat protein [2]: 26.1 nM; apparent KD of MS2 coat protein [4]: 32.9 nM |
| GGAGGAAGAGAGGAUAUGCACUCAAGGAGAAAAGCAGAAGGUUCAACAUGAGGAUCACCCAUGUAUGAUCCUCA [AK-MS2ROC-r4-exclusion6-3] (Eterna round: R97, puzzle: Exclusion 6) | 247 | 197 | – | – |
| GAAAAGGUAGGAUAUACGAAAAAAAAGGGUUGAAAAAAAACACAUGAGGAUCACCCAUGUAGAAGGACCAAAAG [salish99_ex2_r3_080] (puzzle: Exclusion 2) | – | – | 19.7 | apparent KD of MS2 coat protein [2]: 140 nM; apparent KD of MS2 coat protein [4]: 26 nM |
| GGCAUGUAAGGAUAUGCCACGCAGGCCUUUGGCCUGCGUAAGCAGAAGGUACAUGAGGAUCACCCAUGUGAUAA [jl-ex4-4.57 ViennaUCT mod] (Eterna round: R97, puzzle: Exclusion 4) | 129 | 727 | – | – |
| GUGUCGUAAGGAUAUUUACCUGAGCCACUAGAGCGCUUGGAGAAGAAGGUACAUGAGGAUCACCCAUGUGGUGA [Eternabot (L2) Solution 61] (Eterna round: R97, puzzle: Exclusion 4) | 1430 | 2570 | – | – |
| AUAAUGUCAGGAUAUCAGAAGUUUAACUUCGGUUAAACUUCUGAGAAGGGACAUGAGGAUCACCCAUGUGAUUA [E4/3-B1] (Eterna round: R97, puzzle: Exclusion 4) | 109 | 1330 | – | – |
| GCUCGCUGAGGAUAUACUAAAACACGCUCUGGGAGGUCUUGACUUGAGGAUCACCCAAGUAGAAGGCAGUUAAA [Zaesleeran] (Eterna round: R97, puzzle: Exclusion 2) | 437 | 450 | – | – |
| UUUGCAAGCUUAAGAUCCCACAUGAGGAUCACCCAUGUUGCUGCCGUGAGGUAGCAUUUAACUUAUGCUCGUCUUAU [JL TOV1 3.50] (Eterna round: R97, puzzle: Sensor, turn-off variant 1) | 140 | 176 | – | – |
| UGUAAGCUAGGAUAUGCUUUGGGAAAGCAUUCCUUCGAUAAACUUGAGGAUCACCCAAGUAGAAGGAGCUUACU [salish99_ex2_r4_006] (Eterna round: R97, puzzle: Exclusion 2) | 17.5 | 11.5 | – | – |
| UUUGUUUUGCAAGGAUAUGUUUAAUUUUAUUUUCCUUACACAUGAGGAUCACCCAUGUUAUUCUUACAGAAGGUGCGUAAUUUG [Excl-NG2-LRO05] (Eterna round: R96, puzzle: Exclusion NG 2) | – | – | – | apparent KD of MS2 coat protein [1]: 171 nM |
| GCCUUACAUGAGGAUCACCCAUGUCAGGAUAUGUCAGAGUAGGUAAAACACCACUCUAAUAGAAGGGACAUGCA [Diisarlais] (puzzle: Exclusion 1) | – | – | 16.5 | – |
| CCAAGCUUAUUCAUUAACAACAUGAGGAUCACCCAUGUAUAGGCAAUUAUGUUUGGGCUCUUUAGUGCUCGUCUUAU [Sensor-V1 #23] (Eterna round: R97, puzzle: Sensor, turn-off variant 1) | 16.1 | 15.5 | – | – |
| UGUUGUCGCGUAGGAUAUGCAUGAGGAUCACCCAUGCAAUUAGAGUUAACAUGAGGAUCACCCAUGUAGAAGGACGGGACAACU [pwkr exNG2 2xF5 1xFMN.6] (Eterna round: R96, puzzle: Exclusion NG 2) | 89.2 | 54.1 | – | apparent KD of MS2 coat protein [1]: 34.6 nM |
| CAAAAGGGAGGAUAUACAUGAGGAUCACCCAUGUACGGUUCACGGGUAGGUGCGUAUAGUAGAAGGCCCGCAUA [Abiace] (Eterna round: R97, puzzle: Exclusion 3) | 172 | 83.4 | – | – |
| GUGUGCUGAGGAUAUACAGAGGAAGAUAAGAUAAGAUAAUCACAUGAGGAUCACCCAUGUAGAAGGCAGAGUGU [Excluse me!! 16 - Jieux - Exclusion 2] (puzzle: Exclusion 2) | – | – | 27 | – |
| GUGUAACUACACGGGCUCAACAUGAGGAUCACCCAUGUCAUACACGCAAGCUUUUUGCUUGUCUUAUCAGUCCGUGA [Rereerdiin] (puzzle: Sensor v3, turn-off variant 1) | – | – | 13.4 | apparent KD of MS2 coat protein [2]: 13 nM; apparent KD of MS2 coat protein [4]: 11.1 nM |
| CUAAUACAUCAGGAUAUGAUAGCUUAUAGCAUAUCAGAAGGGAUGACAUGAGGAUCACCCAUGUCAAAGGGUGA [eternacac ex6r4 sub18] (Eterna round: R97, puzzle: Exclusion 6) | 130 | 590 | – | – |
| AAAGAGCGAGGAUAUACGUAUCGGUGCGGCCCGCCGAUGUGACAUGAGGAUCACCCAUGUAGAAGGCGCAGAAA [Excls2-X] (puzzle: Exclusion 2) | – | – | 21.3 | – |
| UUGAUGUCAUCAGGAUAUAGUAUUUAAGACAUAUAUUUUUUCAAACAUGAGGAUCACCCAUGUCGCUAGAAGGGAUUAUAGAUU [JR_ExcNG2_Sub082] (Eterna round: R96, puzzle: Exclusion NG 2) | – | – | – | apparent KD of MS2 coat protein [1]: 29.6 nM |
| AUGUAGUAAGGAUAUAGAAAGAAGGAGUAAGAUAGAGAGUUCUAGAAGGUACAUGAGGAUCACCCAUGUUGGAG [JR_Exclu4_Sub081] (puzzle: Exclusion 4) | – | – | 22.2 | – |
| GGUACUAACACGAGAGUGUUAGUACUAUAAGCUUGUGUUACAUGAGGAUCACCCAUGUCCUCAUAGGCUCGUCUUAG [Mat - Sensor v3 - Turn-off var 2 - D84] (puzzle: Sensor v3, turn-off variant 2) | – | – | 34.8 | apparent KD of MS2 coat protein [2]: 93.7 nM; apparent KD of MS2 coat protein [4]: 91.9 nM |
| GGAUCACAUGUGAGGAUAUGCUGGUCCUUGGAUCAGCAGAAGGCACAUGAGGAUCACCCAUGUGAUCAAGAUCC [Eli bmx4 4.78] (Eterna round: R97, puzzle: Brourd's mod of Exclusion 4) | 22.2 | 37.1 | – | – |
| AGCUGUGGCCGAGGAUAUACACAUGAGGAUCACCCAUGUAGGCGCGGAUACGCGCUAAAAUAAGUGUAGAAGGCGGUCUCAGCA [Eli eng2 - 056] (Eterna round: R96, puzzle: Exclusion NG 2) | 20.1 | 18.1 | – | apparent KD of MS2 coat protein [1]: 17.4 nM |
| AACCAGCGAGGAUAUCGUUCGGAUAACAUGAGGAUCACCCAUGUGAGUCGUGUUUACGAACGAGAAGGCGCGACUC [Cequus] (Eterna round: R97, puzzle: Exclusion 5) | 218 | 798 | – | – |
